Results on two molecules are retold here after patent US20240093191A1, “COMPOSITIONS AND METHODS FOR TREATING DISEASE ASSOCIATED WITH DUX4 OVEREXPRESSION” (RESEARCH INSTITUTE AT NATIONWIDE CHILDREN'S HOSPITAL, priority 2021, published 2024).

Format in all cases: cell-based, human
The test system of one data set is DUX4 protein. Kind of data set: Western blot of V5-tagged DUX4 protein in co-transfected HEK293 cells. The note with it: CMV.DUX4-FL/CMV.eGFP, HEK293, molar ratio 1 to 3, eGFP normalizer, relative to U6-milacZ, N = 3-8. As to the method:
Western Blots. […] 50 mM Tris (pH 7.5-8.0), 150 mM NaCl, 0.1% (v/v) SDS, 0.5% (v/v) deoxycholate, 1% (v/v) triton X-100 (Fisher Scientific) and 1 tablet of protease inhibitor (ThermoFisher Scientific) per 10 mL of buffer. The total protein extract was quantified using the DC Protein Assay (Bio-Rad). Twenty microgram samples were separated on 12% SDS-PAGE, transferred to nitrocellulose membrane, using the wet transfer system, and incubated with the following antibodies: mouse monoclonal antibody to V5 (horseradish peroxidase [HRP]-coupled) [1:5,000 in 5% milk TBST buffer (150 mM NaCl, 50 mM Tris-HCl pH 7.4 and 0.1% Tween 20 (Fisher Scientific)), R961-25; Invitrogen); rabbit polyclonal eGFP antibody (1:50,000 in 3% BSA PBS, ab290; Abcam); mouse monoclonal β-actin antibodies (1:60,000; Sigma, St Louis, MO); overnight at 4° C. When using the eGFP antibody, membranes were blocked 30 mins with 3% BSA PBS prior to blotting. eGFP-probed blots were washed five times, 5 min each with 0.5% Tween 20 (Fisher Scientific) in TBST buffer, and then incubated with HRP-coupled goat anti-rabbit secondary antibody (1:250,000 in 3% BSA PBS, 115-035-144; Jackson ImmunoResearch) for 2 hours at room temperature. V5-probed blots were washed five times, 5 min each with 0.1% Tween 20 in TBST buffer. Following washes, blots were developed using Immobilon Western HRP substrate (Millipore) and exposed to film. DUX4.V5, and eGFP quantification was assessed using ImageJ.
(In western blotting, separated proteins are transferred to a membrane and probed.)

The test system of data set [1] is mir-675-5p. Kind of data set: TaqMan QRT-PCR of mature mir-675-5p from transfected constructs in HEK293 cells. The conditions noted are these: HEK293, 24 h post-transfection; for mir-675-5p levels compared to U6.mir-675: 23 mer mature mir-675-5p. The source says:
RNA Extraction. RNA from HEK293 cells was extracted for Northern blot assay and QPCR. The miRVANA miRNA isolation kit (ThermoFisher Scientific) was used according to manufacturer's directions to extract total RNA encompassing small RNAs, such as miRNAs. To extract RNA from C57BL/6 skeletal muscles, cryopreserved muscles were crushed under suboptimal temperatures using liquid nitrogen and using mortar and pestle. Crushed muscles were then lysed using […] of miRVANA miRNA isolation kit lysis buffer, a TissueLyser and 1.0 mm zirconia beads (Biospec). Muscle was homogenized at 30 Hz for 30 sec with 10 sec rest. This was repeated 3 times.
TaqMan Gene Expression Assay. QRT-PCR was carried out to quantify the expression of pri-mir-675, mir-675-5p and mi405 using TaqMan probes (ThermoFisher Scientific). Experiments were started by eliminating genomic DNA from the RNA preparations, and then cDNA was generated using the High-Capacity cDNA Reverse Transcription Kit (Applied Biosystems) following manufacturer's instructions. Within the same cDNA reaction, 1×RT random hexamer primers were used to generate the cDNA for RPL13A, used as a reference gene, and for pri-mir-675. To generate the cDNA for mir-675, the RT mir-675 reverse primer provided by ThermoFisher Scientific was used. For mi405, the mi405 qPCR protocol was done as it was previously described [Wallace et al., Mol. Ther. Methods Clin. Dev. 8: 121-30 (2018)]. To quantify mir-675 and mi405 levels, RNA was extracted using the total RNA protocol for the mirVana miRNA Isolation Kit (Ambion) from HEK293 cells. cDNA was generated using the High-Capacity cDNA Reverse Transcription Kit (Applied Biosystems) using a mix of random hexamer primers and specific reverse primer for pri-mir-675 and mir-675-5p. For mi405, 200 nM of the stem-loop forming primer (5′-[…]-3′) (SEQ ID NO: 144) was also used for the RT step. A custom TaqMan assay (Applied Biosystems) including 1.5 μM of Forward primer (5′-[…]-3′) (SEQ ID NO: 145), 0.7 μM of Reverse primer (5′-GTGCAGGGTCCGAGGT-3′) (SEQ ID NO: 146), and 0.2 μM of mi405 probe (5′-6FAM-ATACGACGTCCAGGAT-3′) (SEQ ID NO: 147) was then run using the CFX Connect Real Time system apparatus (Bio-Rad). RPL13A (Mm02526700_g1; Applied Biosystems) served as the reference gene. The TaqMan gene expression assay consisted of using the TaqMan Gene Expression Master mix and TaqMan probes purchased from ThermoFisher Scientific. 1× of probe was mixed with 1× of the TaqMan Gene Expression Master mix (ThermoFisher Scientific), and with 20 ng of cDNA. The mir-675- and mi405-specific primers and probes were designed to quantify only the mir-675-5p and mi405 mature sequence (see TaqMan Gene Expression Master mix protocol).

Data set [2] relates to mir-675-5p. Kind of data set: ddPCR of all mature mir-675-5p sequences (TaqMan Advanced miRNA cDNA synthesis) in HEK293 cells. As to the method:
Digital Droplet PCR (ddPCR). For mir-675 and mi405 constructs, RNA extraction was carried out as described for QPCR above. For cDNA synthesis, the TaqMan advanced cDNA synthesis kit (Thermo Fisher) was used and cDNA was prepared by following manufacturer's instructions. ddPCR was carried out using 1× ddPCR Supermix for probes (No dUTP) (Bio-Rad), 1× commercially available mir-675 advanced TaqMan probe, or a custom made mi405 advanced TaqMan probe (ThermoFisher) and 50 ng of cDNA. For DUX4 cDNA synthesis, the High-Capacity cDNA Reverse Transcription Kit (Applied Biosystems) was used according to manufacturer's instructions. Within the same cDNA reaction, 1×RT random hexamer primers and 25 pmoles of the Oligo(dT) primer were used to generate cDNA for DUX4 and DUX4-responsive biomarkers and for mouse Rpl13A, used as a reference gene. To quantify DUX4, the ddPCR reaction mixture (20 μL) contained 1× ddPCR Evagreen Supermix (Bio-Rad), 1 μM of forward and reverse DUX4 primers (Sharma et al., J Genet Syndr Gene Ther 2016 August; 7(4):303. doi: 10.4172/2157-7412.1000303. Epub 2016 Aug. 8), and 50 ng of cDNA. To quantify Rpl13A and DUX4-responsive biomarkers (Trim36 and Wfdc3), the 1× ddPCR Supermix for probes (No dUTP) and TaqMan specific probes were used for each of the genes. Droplets were generated using the Automatic Droplet generator QX200 AutoDG (Bio-Rad), the reactions were amplified in a C1000 Touch™ Thermal Cycler with 96-Deep Well Reaction Module (Bio-Rad). Cycling conditions were set up following the QX200 ddPCR Evagreen Supermix protocol. All assays are compatible with an annealing temperature of 58° C. Droplets were then read using the QX200 droplet reader (Bio-Rad). Finally, data were analyzed using the QuantaSoft analysis software (Bio-Rad). For quantification, each reaction of 20 μL was estimated to give at least 10,000 acceptable droplets.
In order to quantify the level of all these mature sequences, the TaqMan advanced miRNA cDNA synthesis method that uses universal reverse transcription (RT) chemistry to synthesize cDNA templates that can be quantified using the TaqMan Advanced miRNA probes was used. In this method, most of the processed mature miRNA sequences were quantified.
A general note: Quantitative PCR measures a nucleic acid by following its amplification.

In data set [3] the test system is mir-675-5p. Briefly: Small-transcript northern blot of mir-675 processing in HEK293 cells. The note with it: HEK293; anti-mir-675-5p biotinylated probe. The source says:
Small-Transcript Northern Blots. […] (SEQ ID NO: 148)).

B1: U6.mir-675-2.1.1: mir-675 construct with modified 5' and 3' flanking sequences (nucleic acid)
DNA: TCTAGAGATCCGACGCCGCCATCTCTAGGCCCGCGCCGGCCCCCTCGCACAGACTTGTGGGAGAAGCTCGGCTACTCCCCTGCCCCGGTTAATTTGCATATAATATTTCCTAGTAACTATAGAGGCTTAATGTGCGATAAAAGACAGATAATCTGTTCTTTTTAATACTAGCTACATTTTACATGATAGGCTTGGATTTCTATAAGAGATACAAATACTAAATTATTATTTTAAAAAACAGCACAAAAGGAAACTCACCCTAACTGTAAAGTAATTGTGTGTTTTGAGACTATAAATATCCCTTGGAGAAAAGCCTTGTTTGCCCCAGGGTCTGGTGCGGAGAGGGCCCACAGTGGACTTGGTGACGCTGTATGCCCTCACCGCTCAGCCCCTGGGGATAACTCCTAATCACACTTTTTT
In the case of B1, in the data set with DUX4 protein, the “Average inhibition efficiency (%) of DUX4 protein levels” value (“Average inhibition efficiency (%)” for short) is on record as 83±3%. Further, in the data set with DUX4 protein (listed as U6-mir-675-2.1.1), the “Average inhibition efficiency (%)” value is listed as 83 ± 3 (N = 3) %. Also, in the data set with mir-675-5p [1], the “mir-675-5p levels compared to U6.mir-675” value was found to be 282±34% and the “ratio of mir-675-5p/pri-mir-675 compared to U6.mir-675” value amounted to 207±38%. Moreover, in the data set with mir-675-5p [2], the “fold change of all mature mir-675-5p sequences compared to U6.mir-675” value came out at 213±51%. The “mature mir-675-5p bands on northern blot” value in the data set with mir-675-5p [3] is on record as “detectable mir-675 mature sequences”.

B2: U6.mir-675F2: U6 mir-675 construct with H1.mir-675-like flanks and cPPT/CTS sequence (nucleic acid)
DNA: TTTTAAAAGAAAAGGGGGGATTGGGGGGTACAGTGCAGGGGAAAGAATAGTAGACATAATAGCAACAGACATACAAACTAAAGAATTACAAAAACAAATTACAAAAATTCAAAATTTTTCTAGAGATCCGACGCCGCCATCTCTAGGCCCGCGCCGGCCCCCTCGCACAGACTTGTGGGAGAAGCTCGGCTACTCCCCTGCCCCGGTTAATTTGCATATAATATTTCCTAGTAACTATAGAGGCTTAATGTGCGATAAAAGACAGATAATCTGTTCTTTTTAATACTAGCTACATTTTACATGATAGGCTTGGATTTCTATAAGAGATACAAATACTAAATTATTATTTTAAAAAACAGCACAAAAGGAAACTCACCCTAACTGTAAAGTAATTGTGTGTTTTGAGACTATAAATATCCCTTGGAGAAAAGCCTTGTTTGCCCCAGGGTCTGGTGCGGAGAGGGCCCACAGTGGACTTGGTGACGCTGTATGCCCTCACCGCTCAGCCCCTGGGGAATTCTTCGATTCTGCTTTTTT
In the case of B2, in the data set with DUX4 protein, the “Average inhibition efficiency (%)” value is listed as 79 ± 6 (N = 3) %. In the data set on mir-675-5p [1], the “mir-675-5p levels compared to U6.mir-675” value came to 882±108% and the “ratio of mir-675-5p/pri-mir-675 compared to U6.mir-675” value was found to be 918±169%. In addition, the “fold change of all mature mir-675-5p sequences compared to U6.mir-675” value in the data set on mir-675-5p [2] was 181±34%. In addition, the “mature mir-675-5p bands on northern blot” value with mir-675-5p [3] is reported as “detectable mir-675 mature sequences”.
